Test results from the supplement of paper PMC9170038.

Tested on: MS2 coat protein
Test: apparent KD of MS2 coat protein; designed switch direction (-1 OFF switch, 1 ON switch): -1; higher = weaker reporter binding
How it was run: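 Apparent KD, taken as the median over clusters for each design, was obtained by curve-fitting normalised cluster fluorescence. Designed RNA switches had been transcribed on Illumina chips by stalled E. coli RNA polymerase and titrated with SNAP-549-labelled MS2 coat protein, doubling from 0.7 or 1.5 nM to 3 µM.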

[1] = Eterna round: R95, input ligand: FMN 200 uM
[2] = Eterna round: R95, input ligand: microRNA oligo, concentration not stated
[3] = Eterna round: R95, input ligand: none
[4] = input ligand: microRNA oligo, concentration not stated

Sequence: GCGCGCGCAGGAUAUACAUGAGGAUCACCCAUGUAGGGCCCGGGUAUUCCCGGGCCCUGUAGAAGGGUGUGUGU [-40.4, -37.1 kcal, A 19%, 0-6] (Eterna round: R97, puzzle: Exclusion 3)
- apparent KD of MS2 coat protein (input ligand: FMN 200 uM): 21.8 nM
- apparent KD of MS2 coat protein (input ligand: none): 113 nM

Sequence: CUUCACCCACCAGAGCUCACCCACAUACCUGCUCAGGUGACAUGAGGAUCACCCAUGUUUUUUGCCCGUCUUAUCUU [Atquertebi] (puzzle: Sensor v3, turn-off variant 2)
- apparent KD of MS2 coat protein [1]: 33.1 nM
- apparent KD of MS2 coat protein [2]: 181 nM
- apparent KD of MS2 coat protein [3]: 34.3 nM

Sequence: AAGAAACAUGAGGAUCACCCAUGUGAGGAUAUGAAAAAGAAAAGAAAAGAAAGAAGACUCAGAAGGCACAAAGG [salish99-ex1_r3_022] (puzzle: Exclusion 1)
- apparent KD of MS2 coat protein [1]: 33.3 nM
- apparent KD of MS2 coat protein [2]: 48.5 nM
- apparent KD of MS2 coat protein [3]: 45.7 nM

Sequence: ACGAAGCACGAGGAUAUGACCAUAGUGAUAUGGUCAGAAGGCGUAACAUGAGGAUCACCCAUGUAGUGGCCUCG [Eternabot (Original) Solution 12] (Eterna round: R97, puzzle: Exclusion 6)
- apparent KD of MS2 coat protein (input ligand: FMN 200 uM): 212 nM
- apparent KD of MS2 coat protein (input ligand: none): 20.1 nM

Sequence: CUUUCGUCUGUGGGUGGUGACAUGAGGAUCACCCAUGUUUUGCUCGUUUUGUCUUGGGCUCGGCGCCCGGGUUCGGG [-25.2, -46.4, A 8%] (Eterna round: R97, puzzle: Sensor, turn-off variant 1)
- apparent KD of MS2 coat protein (input ligand: FMN 200 uM): 467 nM
- apparent KD of MS2 coat protein (input ligand: none): 872 nM

Sequence: AAGAUGCGGAUAGGAUAUGGAAAGAAGGAAAGACCAGAAGGAUUGGUCAUAUAACAUGAGGAUCACCCAUGUAUAUGUUGUGAA [AK ExNG1-3.1] (Eterna round: R96, puzzle: Exclusion NG 1)
- apparent KD of MS2 coat protein [4]: 13 nM

Sequence: GCACGGUUGGUAGGAUAUCAUUGCGAUUAGCUAUGAGAAGGACCACAUGAGGAUCACCCAUGUCCUCUAAUUAGCCUGCCGUGC [Eli exng1 - 014] (Eterna round: R96, puzzle: Exclusion NG 1)
- apparent KD of MS2 coat protein [4]: 118 nM

Sequence: AAUUCCGUAGGAUAUGGGAACCGGGACAUGAGGAUCACCCAUGUGAAGGAUGUCCCAACACCAGAAGGACGCAGCA [EX5 A.14] (Eterna round: R97, puzzle: Exclusion 5)
- apparent KD of MS2 coat protein (input ligand: FMN 200 uM): 47 nM
- apparent KD of MS2 coat protein (input ligand: none): 25.9 nM

Sequence: AAAAUACAUGAGGAUCACCCAUGUGAGGAUAUGAGAGUCAUUUAUAUAUAUUAGAUUCUCAGAAGGCACAUAAA [JR_Ex1_Sub068] (Eterna round: R97, puzzle: Exclusion 1)
- apparent KD of MS2 coat protein (input ligand: FMN 200 uM): 211 nM
- apparent KD of MS2 coat protein (input ligand: none): 53.7 nM

Sequence: GAUGGCUAAGGAUAUACAUAGAAGAAUUGAACUUGGAUUAUACAUGAGGAUCACCCAUGUAGAAGGUAGUCAUC [ExGluten 3 - Jieux - Exclusion 2] (Eterna round: R97, puzzle: Exclusion 2)
- apparent KD of MS2 coat protein (input ligand: FMN 200 uM): 82.9 nM
- apparent KD of MS2 coat protein (input ligand: none): 24.6 nM

Sequence: AGUAGUAGUAUCCGAUCUUACAUGAGGAUCACCCAUGUUUCUAGACGUGCACGCGAUGCUCGUCAGACUACCAGAUG [salish99_TOv1_r3_053] (puzzle: Sensor v3, turn-off variant 1)
- apparent KD of MS2 coat protein [1]: 128 nM
- apparent KD of MS2 coat protein [2]: 173 nM
- apparent KD of MS2 coat protein [3]: 174 nM

Sequence: UGGCUACCUUGGUGCUCUACAAGCUUUUUGCUCGUUUUAACAUGAGGAUCACCCAUGUCUAGUGGAUCUGAUCGGGC [JL ViennaUCT Isreen mod 1] (puzzle: Sensor v3, turn-off variant 2)
- apparent KD of MS2 coat protein [1]: 62.1 nM
- apparent KD of MS2 coat protein [2]: 139 nM
- apparent KD of MS2 coat protein [3]: 62.7 nM

Sequence: GUUAACGUAGGAUAUUAGUACAUGAACAUGAGGAUCACCCAUGUGAGGUGGGUCUAAGAAUAAGAAGGGCGAAGAA [EX5 #26] (Eterna round: R97, puzzle: Exclusion 5)
- apparent KD of MS2 coat protein (input ligand: FMN 200 uM): 317 nM
- apparent KD of MS2 coat protein (input ligand: none): 312 nM

Sequence: GACUAGGGAGGAUAUAUUUACAGUGUACCUCGGAUGAUCGCACUUGAGGAUCACCCAAGUAGAAGGCUCGAGGG [EX2 #28] (Eterna round: R97, puzzle: Exclusion 2)
- apparent KD of MS2 coat protein (input ligand: FMN 200 uM): 30.4 nM
- apparent KD of MS2 coat protein (input ligand: none): 33.2 nM

Sequence: CGUUCGCGAGGAUAUGCAUUCGAGUCCAUUACGUGUCUGGGACUUGAGGAUCACCCAAGUAGAAGGCGUCUCAC [salish99_ex2_r4_646] (Eterna round: R97, puzzle: Exclusion 2)
- apparent KD of MS2 coat protein (input ligand: FMN 200 uM): 135 nM
- apparent KD of MS2 coat protein (input ligand: none): 154 nM

Sequence: AAUCCACAUGAGGAUCACCCAUGUCAGGAUAUCGCGCGCGCGUUUUCGGUCUUGCGCGCGAGAAGGGACGGCUG (puzzle: Exclusion 1)
- apparent KD of MS2 coat protein [2]: 22.9 nM

Sequence: GUUGUGUAAGGAUAUGCCUGGCCGUGAGGCCAGAUUGAGUGGCAGAAGGUACAUGAGGAUCACCCAUGUACGGG [salish99_ex4_4_003] (Eterna round: R97, puzzle: Exclusion 4)
- apparent KD of MS2 coat protein (input ligand: FMN 200 uM): 145 nM
- apparent KD of MS2 coat protein (input ligand: none): 26.8 nM

Sequence: CUCAUGUGAGGAUAUGUGAUCUGCUUUCUGUGUAGAUGAUCACAGAAGGCACAUGAGGAUCACCCAUGUAGAUC [Ex4 - 3 - 28] (Eterna round: R96, puzzle: Exclusion 4)
- apparent KD of MS2 coat protein (input ligand: FMN 200 uM): 65.7 nM
- apparent KD of MS2 coat protein [4]: 93.9 nM
- apparent KD of MS2 coat protein (input ligand: none): 91 nM

Sequence: UAUUUACAUGAGGAUCACCCAUGUCAGGAUAUGCUCGAUAUAUGGAAACAUAUAUCGAGCAGAAGGGACUAGCG [Jieuxxlusion 7 - Jieux - Exclusion 1] (Eterna round: R97, puzzle: Exclusion 1)
- apparent KD of MS2 coat protein (input ligand: FMN 200 uM): 152 nM
- apparent KD of MS2 coat protein (input ligand: none): 72.7 nM

Sequence: UGAUCACAUGAGGAUCACCCAUGUCAGGAUAUCUACAUUGAAGCCUCGGCUUCAAUGUAGAGAAGGGAUAUAAU [E1/5-B2] (Eterna round: R97, puzzle: Exclusion 1)
- apparent KD of MS2 coat protein (input ligand: FMN 200 uM): 189 nM
- apparent KD of MS2 coat protein (input ligand: none): 86.8 nM

Sequence: CUAGAUCUUCGGAUCUAGUACAUGAGGAUCACCCAUGUGACGAGUUACAUGUUUUACAAGCUUUUUGCUCGUCUUAU [Sensor v3 - Turn-off variant 1 - 13] (puzzle: Sensor v3, turn-off variant 1)
- apparent KD of MS2 coat protein [1]: 39.4 nM
- apparent KD of MS2 coat protein [2]: 90.7 nM
- apparent KD of MS2 coat protein [3]: 40.5 nM

Sequence: AAUUUGCAAGCGAGAUCCCACAUGAGGAUCACCCAUGUGCUCGUCUUAUAAGGUACUGUGACAAUAGUCACGGUACC [Mat - Sensor, turn-off var - Eli Mod - D94] (Eterna round: R97, puzzle: Sensor, turn-off variant 1)
- apparent KD of MS2 coat protein (input ligand: FMN 200 uM): 16.7 nM
- apparent KD of MS2 coat protein (input ligand: none): 20.8 nM

Sequence: GAAGAAAACCAAGGAUAUCGGAAAGGAAGUGUACGAGAAGGUGGACAUGGACAUGAGGAUCACCCAUGUGGCCCGAUGCCGUGG [PowerStrip EXNG 1.5] (Eterna round: R96, puzzle: Exclusion NG 1)
- apparent KD of MS2 coat protein (input ligand: FMN 200 uM): 54.8 nM
- apparent KD of MS2 coat protein [4]: 33.5 nM
- apparent KD of MS2 coat protein (input ligand: none): 38.1 nM

Sequence: AGCUAGGCAGGAUAUACAUGAGGAUCACCCAUGUAAAUUUUUCGUUUAACUUGAAUGUGUAGAAGGGCCAUAAA [Ex3 #51] (Eterna round: R97, puzzle: Exclusion 3)
- apparent KD of MS2 coat protein (input ligand: FMN 200 uM): 23.9 nM
- apparent KD of MS2 coat protein (input ligand: none): 22.4 nM

Sequence: AUAAAACAUGAGGAUCACCCAUGUCAGGAUAUACGAUUCCACCCUAACUGCGUGGAACGUAGAAGGGACAUAGG [Exclusion 1 (MOD6 Esqu)] (Eterna round: R97, puzzle: Exclusion 1)
- apparent KD of MS2 coat protein (input ligand: FMN 200 uM): 62.7 nM
- apparent KD of MS2 coat protein (input ligand: none): 76.4 nM

Sequence: CAGCCUCAGGUUAGGAUAUACGCGUGGCCGAAGGAGUAGAAGGGACAUGAGGAUCACCCAUGUGGGUUCAAAUG [Onsoisgeso] (puzzle: Brourd's mod of Exclusion 4)
- apparent KD of MS2 coat protein [1]: 292 nM
- apparent KD of MS2 coat protein [2]: 151 nM
- apparent KD of MS2 coat protein [3]: 270 nM

Sequence: AACGUGUAAGGAUAUCUGCUUAUGCUCGGCAAUGCACCGAUAGAGAAGGUACAUGAGGAUCACCCAUGUUCCAA [EX4 A.16] (Eterna round: R97, puzzle: Exclusion 4)
- apparent KD of MS2 coat protein (input ligand: FMN 200 uM): 16.7 nM
- apparent KD of MS2 coat protein (input ligand: none): 15.8 nM

Sequence: AUAAAGUCAGGAUAUCGAAGUGAGUGGUGGAGGGUAAGGUACGAGAAGGGACAUGAGGAUCACCCAUGUAGGAA [JR_Exclusion4)Sub005] (puzzle: Exclusion 4)
- apparent KD of MS2 coat protein [1]: 24 nM
- apparent KD of MS2 coat protein [2]: 27.2 nM
- apparent KD of MS2 coat protein [3]: 29.5 nM

Sequence: AAGAAACAUGAGGAUCACCCAUGUGAGGAUAUGUAAAAUAAAAGAAAAUAAAGAAUAAACAGAAGGCACAAAGG [Mat - Mod of Hog D23] (puzzle: Exclusion 1)
- apparent KD of MS2 coat protein [1]: 48 nM
- apparent KD of MS2 coat protein [2]: 46.5 nM
- apparent KD of MS2 coat protein [3]: 43.5 nM

Sequence: AGCGCCAUCGUGAGAUGGCGUAUUACAUGAGGAUCACCCAUGUAGGAUAUCGAUUGCUUUGCAGUCGAGAAGGACAUGUUCUUU [JL ENG3 3.80 Mod D] (Eterna round: R96, puzzle: Exclusion NG 3)
- apparent KD of MS2 coat protein (input ligand: FMN 200 uM): 27.1 nM
- apparent KD of MS2 coat protein [4]: 19.3 nM
- apparent KD of MS2 coat protein (input ligand: none): 23.4 nM

Sequence: GGUACUCAAAGAGUACCAAUACGAACAUGAGGAUCACCCAUGUAGGAUAUGCUACUCAAAGAGUAGCAGAAGGACAUGUACCUU [Far Half Aptamer v6] (Eterna round: R96, puzzle: Exclusion NG 3)
- apparent KD of MS2 coat protein (input ligand: FMN 200 uM): 227 nM
- apparent KD of MS2 coat protein [4]: 19.7 nM
- apparent KD of MS2 coat protein (input ligand: none): 29.5 nM

Sequence: CGGAAGAUCGAAGGAUAUUGAGACAAACAGUGUCAAGAAGGUUGGGAGGACACAUGAGGAUCACCCAUGUCCAACUUUUGACGG [Eternabot solution 26] (Eterna round: R96, puzzle: Exclusion NG 1)
- apparent KD of MS2 coat protein (input ligand: FMN 200 uM): 12.7 nM
- apparent KD of MS2 coat protein [4]: 9.76 nM
- apparent KD of MS2 coat protein (input ligand: none): 12.4 nM

Sequence: GGUUGACAUGAGGAUCACCCAUGUGAGGAUAUGCGAGAGAAAAAAGUGAGGAAGAUAAGCAGAAGGCGCUGUCG [salish99-ex1_r3_013] (puzzle: Exclusion 1)
- apparent KD of MS2 coat protein [1]: 118 nM
- apparent KD of MS2 coat protein [2]: 178 nM
- apparent KD of MS2 coat protein [3]: 260 nM

Sequence: GGGUGACAUGAGGAUCACCCAUGUCAGGAUAUGGGCCCGGGCCCGAAAGGGCCCGGGCCCAGAAGGGACUGCCC [-52, -51 kcal, 22%A] (Eterna round: R97, puzzle: Exclusion 1)
- apparent KD of MS2 coat protein (input ligand: FMN 200 uM): 151 nM
- apparent KD of MS2 coat protein (input ligand: none): 46.5 nM
